According to US20150231218A1 (MAYO FOUNDATION FOR MEDICAL EDUCATION AND RESEARCH, published 2015):

Target: T1, HLA-A2 (class I MHC molecule) on TAP deficient T2 cells
T1 construct: whole, on cells; Target of the T2 HLA-A2 stabilization assay; The assay text says only HLA-A2; also called HLA-A*0201
Test: T2 HLA-A2 stabilization assay
Excerpt: Many of the polypeptides that were processed in the assay were synthesized and tested for binding to the class I MHC molecule, HLA-A2, using the standard T2 HLA-A2 stabilization assay.

Binder: SLAFLPESFD (Synthetic peptide) [HER-2/neu polypeptide p373-382 (SLAFLPESFD)]
- binding result: binds
